Changes are numbered by the printed parent chain. Names and notes keep the numbering of the source.
B1: DegP S210A (proteolytically inactive variant missing the catalytic serine) (enzyme)
chain: AETSSATTAQQMPSLAPMLEKVMPSVVSINVEGSTTVNTPRMPRNFQQFFGDDSPFCQEGSPFQSSPFCQGGQGGNGGGQQQKFMALGSGVIIDADKGYVVTNNHVVDNATVIKVQLSDGRKFDAKMVGKDPRSDIALIQIQNPKNLTAIKMADSDALRVGDYTVAIGNPFGLGETVTSGIVSALGRSGLNAENYENFIQTDAAINRGNAGGALVNLNGELIGINTAILAPDGGNIGIGFAIPSNMVKNLTSQMVEYGQVKRGELGIMGTELNSELAKAMKVDAQRGAFVSQVLPNSSAAKAGIKAGDVITSLNGKPISSFAALRAQVGTMPVGSKLTLGLLRDGKQVNVNLELQQSSQNQVDSSSIFNGIEGAEMSNKGKDQGVVVNNVKTGTPAAQIGLKKGDVIIGANQQAVKNIAELRKVLDSKPSVLALNIQRGDSTIYLLMQ
modifications: donor or acceptor dye on the trimers in the FRET assay only (site not given)
B2: DegP S210A/Q200A (enzyme)
chain: B1 chain with Q200A
modifications: donor or acceptor dye on the trimers in the FRET assay only (site not given)
B3: DegP S210A/R187A (enzyme)
chain: B1 chain with R187A
modifications: donor or acceptor dye on the trimers in the FRET assay only (site not given)
B4: DegP S210A/T176V (enzyme)
chain: B1 chain with T176V
modifications: donor or acceptor dye on the trimers in the FRET assay only (site not given)

molecular target: fluorescent peptide derived from residues 18-58 of lysozyme; assay: fluorescence polarisation

Row | Kd [µM] | Binder
1 | 1 | B1
2 | 30 | B2
3 | 30 | B3
4 | 30 | B4

molecular target: fluorescent peptide derived from residues 18-58 of lysozyme; assay: fluorescence polarisation; remark: another data set of the same source

Row | Kd [µM] | Binder
5 | 30 | B2
6 | 30 | B3
7 | 30 | B4

Source: article PMC4351158
